# Experimental data published in patent US10336829B2, “Intracellular delivery compounds” (Sorrento Therapeutics, Inc., priority 2015, dated 2019).
# B1: ST3G12: Human anti-human STAT3 antibody; heavy chain variable SEQ ID NO: 3, light chain variable SEQ ID NO: 4 (antibody, V domains shown)
# VH: QVQLVQSGAEVKKPGASVKVSCKASGYTFTSYYMHWVRQAPGQGLEWMGIINPSGGSTSYAQKFQGRVTMTRDTSTSTVYMELSSLRSEDTAVYYCARSDYVHSFDIWGQGTMVTVSS
# VL: QPVLTQPPSASALLGASIKLTCTLSSEHSTYTVEWYQQRPGRSPQYIMNVKSDGSYNKGDGIPDRFMGSSSGADRYLTFSNLQSDDEAEYHCGESHRIDGQVGVVFGGGTKLTVL
# How the values were obtained:
# MCF-10A cells = experiment: Caveolin and clathrin-dependent compound 901a uptake in MCF-10A cells; type: cell-based, human; details: 30 min pretreatment
# Source text: Clathrin-mediated endocytosis is mediated by small vesicles that have a morphologically characteristic coat made up of a complex of proteins that are mainly associated with the cytosolic protein clathrin. Caveolae are the most common reported non-clathrin-coated plasma membrane buds, which exist on the surface of many, but not all cell types. They consist of the cholesterol-binding protein caveolin (Vip21) with a bilayer enriched in cholesterol and glycolipids. Both clathrin mediated endocytosis and caveolae transport extracellular molecules into the cell. 5,000 cells were seeded per well in a 96 well plate, overnight. Cells were pretreated with the clathrin inhibitor Pitstop2 (30 uM or 60 uM) or the caveolin inhibitor filipin (0.5 ug/ml or 1.0 ug/ml) for 30 minutes. […] Cells were fixed and imaged with IncuCyte. DMSO and antibody only were used as controls.
# [1] = system: cellular antigens in U251 cells; experiment: Cell binding of naked ST3G12 versus compound 901a in permeabilized U251 cells (HTFC); details: 45 min room temperature, PE anti-human IgG
# Method: After 45 minutes at room temperature, cells were washed twice and incubated with phycoerythrin (PE) conjugated-anti-human IgG for 20 minutes at room temperature in the dark. Cells were then washed and analyzed by high throughput flow cytometry (HTFC). The results are shown in FIG. 9 for assessment of antibody binding to cellular antigens in U251 cells.
# STAT3 [2] = target: T1, STAT3 (Homo sapiens, UniProt P40763); experiment: Biacore T200 affinity to recombinant human STAT3-GST; details: Biacore T200, 1:1 (Langmuir) binding model
# Method: (§1) Anti-human Fc antibody (GE, BR-1008-39) was immobilized on a CMS sensor chip to approximately 1000 RU using standard NHS/EDC coupling methodology. Antibodies (approximately 10 ug/ml) were captured for 60 seconds at a flow rate of 10 ul/min Recombinant human STAT3-GST was serially diluted 2-fold into running buffer (HBS-EP+, starting from […]). All measurements were conducted at a flow rate of 30 ul/min Surfaces were regenerated with 3M MgCl2 (from human antibody kit) for 60 seconds. A 1:1 (Langmuir) binding model was used to fit the data.
# GST protein = experiment: Biacore binding to GST protein; details: Biacore assay
# Method: as §1
# U251 cells = experiment: Cell penetration in U251 cells by microscopy; type: cell-based; details: 20 ug/mL, 2 hours at 37° C.
# Method: Briefly, previously cleaned glass coverslips were coated with collagen for 2 hours at 37° C. 100,000 U251 cells were seeded on the coverslips. Media was removed, and cells were rinsed once with fluorobrite. Next, 20 ug/mL of the specified antibody was added for 2 hours at 37° C. Cells were fixed in 4% PFA for 15 minutes and then permeabilized with 0.1% TritonX for 15 minutes. Cells were blocked with 3% BSA for 30 minutes and 1:250 GAH-Alexa fluor 488 was added for 1 hour. Next, 200× wheat germ agglutinin Alexa fluor 555 (WGA 555) and 1:1000 DAPI was added for 30 minutes. Cells were washed 3× with PBS and mounted with prolong gold anti-fade.
# STAT3 [3] = target: T1, STAT3; experiment: Cell binding assay of anti-STAT3 antibodies, fixed and permeabilized cells, flow cytometry; design: endogenous in cells; details: MDA-MB-468 and U251 cells, serial dilutions, PE anti-human IgG
# Method: Next, the binding of the candidate anti-STAT3 antibodies to cellular targets was tested in cell binding assays using MDA-MB-435 breast cancer cells and U251 cells. The cells were seeded overnight in a 96 well plate, then fixed with PFA and permeabilized with methanol. Cells were incubated with serial dilutions of the anti-STAT3 antibody candidates ST1A5, ST3G12 and ST5G12 for one hour and 30 minutes. Following incubation, the cells were washed and incubated for 30 minutes with phycoerythrin (PE) conjugated anti-human IgG. Fluorescence was measured on an Intellicyte high-throughput flow cytometry analyzer. […] Bevacizumab (Avastin), a monoclonal antibody that inhibits vascular endothelial growth factor A (VEGF-A) was used as a negative control.
# STAT3 [4] = target: T1, STAT3; experiment: IL-6-stimulated STAT3 phosphorylation ELISA in MCF-10A and MCF-7 cells; type: cell-based; design: endogenous in cells; details: overnight pre-treatment, IL-6 10 or 40 ng/ml 20 min
# Method: Cells were pre-treated overnight with antibody, and then stimulated with various concentrations of IL-6 for 20 minutes (10 ng/ml or 40 ng/ml). IL-6 is a STAT3 activator. Cells were then lysed and the protein lysates were subjected to ELISA to determine the phosphorylation status. […] “OS-AIP” refers to an oligosaccharide conjugated bacterial AIP protein, used as a control.
# T1 sequence (P40763 whole entry): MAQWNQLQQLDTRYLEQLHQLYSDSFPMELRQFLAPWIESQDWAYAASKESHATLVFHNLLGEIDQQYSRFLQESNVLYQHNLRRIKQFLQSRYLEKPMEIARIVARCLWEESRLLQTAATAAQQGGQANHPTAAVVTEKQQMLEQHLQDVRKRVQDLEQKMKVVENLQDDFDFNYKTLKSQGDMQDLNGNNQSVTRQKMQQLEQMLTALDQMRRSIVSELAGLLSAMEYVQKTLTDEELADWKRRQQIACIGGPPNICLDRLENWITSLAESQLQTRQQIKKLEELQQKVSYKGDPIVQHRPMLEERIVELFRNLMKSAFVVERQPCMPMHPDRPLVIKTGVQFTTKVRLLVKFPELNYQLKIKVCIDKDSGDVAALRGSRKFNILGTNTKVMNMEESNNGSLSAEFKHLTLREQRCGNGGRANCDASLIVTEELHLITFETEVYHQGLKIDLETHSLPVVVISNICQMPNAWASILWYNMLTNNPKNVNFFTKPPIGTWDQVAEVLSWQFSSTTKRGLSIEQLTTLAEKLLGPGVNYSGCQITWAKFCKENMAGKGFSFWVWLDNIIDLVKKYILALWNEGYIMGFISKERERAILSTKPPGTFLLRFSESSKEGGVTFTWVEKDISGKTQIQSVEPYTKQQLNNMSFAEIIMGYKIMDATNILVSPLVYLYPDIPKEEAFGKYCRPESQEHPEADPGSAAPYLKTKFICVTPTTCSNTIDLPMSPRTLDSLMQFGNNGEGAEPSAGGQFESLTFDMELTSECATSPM
molecule,measurement,setting,value
CCCCC[C@@H](O)[C@H]1C(=O)O[C@H](C)[C@@H](O)/C=C/C=C/C=C/C=C/C=C(\C)[C@@H](O)C[C@H](O)C[C@H](O)C[C@H](O)C[C@H](O)C[C@H](O)C[C@@H]1O [filipin],effect of inhibitor on compound 901a uptake,MCF-10A cells; inhibitor 0.5 ug/ml,little effect
same,effect of inhibitor on compound 901a uptake,MCF-10A cells; inhibitor 1.0 ug/ml,greater effect
"O=C1NC(=NS(=O)(=O)c2cccc3ccccc23)S/C1=C\c1ccc(Br)cc1 [PS2, Pitstop2]",effect of inhibitor on compound 901a uptake,MCF-10A cells; inhibitor 30 uM and 60 uM,inhibited compound 901a uptake
B1,binding to cellular antigens in U251 cells,[1],considerably lower
same,Rmax,STAT3 [2],174 RU
same,kd,STAT3 [2],0.000322 s⁻¹
same,ka,STAT3 [2]; STAT3-GST from 100 nm,59700 M⁻¹ s⁻¹
same,binding to GST protein,GST protein,No binding
same,cell penetration / internalization,U251 cells,no internalization
same,binding to STAT3 / cellular antigens (MFI),STAT3 [3],bound STAT3
same,effect on STAT3 phosphorylation,STAT3 [4],little to no effect
